US20190177408A1 (SUZHOU CONNECT BIOPHARMACEUTICALS, published 2019)

T1: human soluble IL-4Rα (sIL-4Rα) (human, UniProt P24394 26-232)
T1 construct: Bought reagent (PEPRO TECH, Catalog Number 200-04R); also called shIL-4Rα; soluble hIL-4 Rα
T1 sequence: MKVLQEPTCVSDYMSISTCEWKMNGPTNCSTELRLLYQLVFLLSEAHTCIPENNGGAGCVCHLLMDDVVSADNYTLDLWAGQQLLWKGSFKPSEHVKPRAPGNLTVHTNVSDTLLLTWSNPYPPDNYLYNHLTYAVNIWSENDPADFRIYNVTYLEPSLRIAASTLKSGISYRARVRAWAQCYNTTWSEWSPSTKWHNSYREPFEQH


biological target: T1, human soluble IL-4Rα (sIL-4Rα); test: ELISA, coated sIL-4Rα, culture supernatant
Experimental: 100 μl of 100 μg/ml sIL-4Rα solution was added to 9.90 ml of PBS, mixed up and down, and then an antigen coating buffer of 1.0 μg/ml was obtained. The prepared antigen coating buffer was added to a 96-well ELISA plate (Corning) with a volume of 100 μl per well. The 96-well ELISA plate was incubated overnight in a refrigerator at 4° C. On the next day; the solution therein was discarded; and PBS containing 2% BSA was added to the 96-well ELISA plate row by row with a volume of 300 μl per well. The 96-well ELISA plate was incubated for 2 hours in a refrigerator at 4° C., Then the PBS containing 2% BSA was discarded and the plate was washed 3 times with PBST. Diluted antibodies to be tested were sequentially added to the corresponding wells, while the normal cell culture supernatants, as negative control samples, were added too. Three duplicate wells were made for each sample with a volume of 100 μl per well. The ELISA plate was wrapped with preservative film (or covered) and incubated for 1 h at […] in a constant temperature incubator. Subsequently, the 96-well ELISA plate was taken out, and the solution therein was discarded. After washing with PBST for 3 times, TMB solution (Solarbio, Catalog Number: PR1200) was added to the 96-well ELISA plate row by row with a volume of 100 μl per well. The 96-well ELISA plate was placed at room temperature for 5 minutes, and 2 M H2SO4 solution was added in immediately to terminate the reaction. The 96-well ELISA plate was placed in flexstation 3 (Molecular Devices), the values of OD450 were read, and the data were collected, calculated and analyzed. Results were expressed relative to the affinity of control antibody 1.

OD 450/OD450Control antibody 1	Binder
0.37	L1000H1007 (antibody, V domains shown, human kappa) VH: EVQLVQSGGGLVHPGGSLRLSCAGSGFTFSRNAMFWVRQAPGKGLEWVSGIGTGGATSYADSVKGRFTISRDNAKNSLYLQMNSLRAEDMAVYYCARGRYYFDYWGQGTLVTVSS VL: not shown
0.11	L1012H1029 (antibody, V domains shown, human kappa) VH: EVQLVESGGGLVQPGGSLRLSCAASGFTFSRNAMFWVRQAPGKGLEWVSGIGTGGATSYADSVKGRFTISRDNAKNSLYLQMNSLRAEDMAVYYCARGRYYFPWWGQGTLVTVSS VL: not shown
0.38	L1000H1013 (antibody, V domains shown, human kappa) VH: EVQLVESGGGLVHPGGSLRLSCAASGFTFSRNAMFWVRQAPGKGLEWVSGIGTGGATNYADSVKGRFTISRDNAKNSLYLQMNSLRAEDMAVYYCARGRYYFDYWGQGTLVTVSS VL: not shown
0.21	L1000H1008 (antibody, V domains shown, human kappa) VH: EVQLVQSGGGLVHPGGSLRLSCAGSGFTFSRNAMFWVRQAPGKGLEWVSGIGTGGATNYADSVKGRFTISRDNAKNSLYLQMNSLRAEDTAVYYCARGRYYFDYWGQGTLVTVSS VL: not shown
0.2	L1000H1030 (antibody, V domains shown, human kappa) VH: EVQLVESGGGLVQPGGSLRLSCAASGFTFSRNAMFWVRQAPGKGLEWVSGIGTGGATNYADSVKGRFTISRDNAKNSLYLQMNSLRAEDTAVYYCARGRYYFPWWGQGTLVTVSS VL: not shown
1.14	L1000H1031 (antibody, V domains shown, human kappa) VH: EVQLVESGGGLVQPGGSLRLSCAASGFTFSRNAMFWVRQAPGKGLEWVSGIGTGGATSYADSVKGRFTISRDNAKNSLYLQMNSLRAEDTAVYYCARGRYYFDYWGQGTLVTVSS VL: not shown
0.22	L1000H1035 (antibody, V domains shown, human kappa) VH: EVQLVQSGGGLVHPGGSLRLSCAGSGFTFSRNAMHWVRQAPGKGLEWVSGIGTGGATNYADSVKGRFTISRDNAKNSLYLQMNSLRAEDMAVYYCARGRYYFDYWGQGTLVTVSS VL: not shown
1.22	L1012H1000 (antibody, V domains shown, human kappa) VH: EVQLVQSGGGLVHPGGSLRLSCAGSGFTFSRNAMFWVRQAPGKGLEWVSGIGTGGATNYADSVKGRFTISRDNAKNSLYLQMNSLRAEDMAVYYCARGRYYFDYWGQGTLVTVSS VL: not shown
0.11	L1000H1026 (antibody, V domains shown, human kappa) VH: EVQLVESGGGLVQPGGSLRLSCAGSGFTFSRNAMFWVRQAPGKGLEWVSGIGTGGATSYADSVKGRFTISRDNAKNSLYLQMNSLRAEDTAVYYCARGRYYFPWWGQGTLVTVSS VL: not shown
0.11	L1012H1020 (antibody, V domains shown, human kappa) VH: EVQLVQSGGGLVHPGGSLRLSCAGSGFTFSRNAMFWVRQAPGKGLEWVSGIGTGGATSYADSVKGRFTISRDNAKNSLYLQMNSLRAEDMAVYYCARGRYYFPWWGQGTLVTVSS VL: not shown
0.23	L1000H1020 (antibody, V domains shown, human kappa) VH: EVQLVQSGGGLVHPGGSLRLSCAGSGFTFSRNAMFWVRQAPGKGLEWVSGIGTGGATSYADSVKGRFTISRDNAKNSLYLQMNSLRAEDMAVYYCARGRYYFPWWGQGTLVTVSS VL: not shown
0.9	L1008H1000 (antibody, V domains shown, human kappa) VH: EVQLVQSGGGLVHPGGSLRLSCAGSGFTFSRNAMFWVRQAPGKGLEWVSGIGTGGATNYADSVKGRFTISRDNAKNSLYLQMNSLRAEDMAVYYCARGRYYFDYWGQGTLVTVSS VL: not shown
0.44	L1000H1027 (antibody, V domains shown, human kappa) VH: EVQLVESGGGLVHPGGSLRLSCAASGFTFSRNAMFWVRQAPGKGLEWVSGIGTGGATSYADSVKGRFTISRDNAKNSLYLQMNSLRAEDTAVYYCARGRYYFPWWGQGTLVTVSS VL: not shown
0.18	L1000H1022 (antibody, V domains shown, human kappa) VH: EVQLVQSGGGLVHPGGSLRLSCAGSGFTFSRNAMFWVRQAPGKGLEWVSGIGTGGATSYADSVKGRFTISRDNAKNSLYLQMNSLRAEDTAVYYCARGRYYFPWWGQGTLVTVSS VL: not shown
0.4	L1012H1007 (antibody, V domains shown, human kappa) VH: EVQLVQSGGGLVHPGGSLRLSCAGSGFTFSRNAMFWVRQAPGKGLEWVSGIGTGGATSYADSVKGRFTISRDNAKNSLYLQMNSLRAEDMAVYYCARGRYYFDYWGQGTLVTVSS VL: not shown
0.33	L1000H1028 (antibody, V domains shown, human kappa) VH: EVQLVQSGGGLVQPGGSLRLSCAASGFTFSRNAMFWVRQAPGKGLEWVSGIGTGGATSYADSVKGRFTISRDNAKNSLYLQMNSLRAEDTAVYYCARGRYYFPWWGQGTLVTVSS VL: not shown
0.1	L1000H1036 (antibody, V domains shown, human kappa) VH: EVQLVQSGGGLVHPGGSLRLSCAGSGFTFSRNAMFWVRQAPGEGLEWVSGIGTGGATNYADSVKGRFTISRDNAKNSLYLQMNSLRAEDMAVYYCARGRYYFDYWGQGTLVTVSS VL: not shown
0.16	L1012H1031 (antibody, V domains shown, human kappa) VH: EVQLVESGGGLVQPGGSLRLSCAASGFTFSRNAMFWVRQAPGKGLEWVSGIGTGGATSYADSVKGRFTISRDNAKNSLYLQMNSLRAEDTAVYYCARGRYYFDYWGQGTLVTVSS VL: not shown
0.9	L1011H1000 (antibody, V domains shown, human kappa) VH: EVQLVQSGGGLVHPGGSLRLSCAGSGFTFSRNAMFWVRQAPGKGLEWVSGIGTGGATNYADSVKGRFTISRDNAKNSLYLQMNSLRAEDMAVYYCARGRYYFDYWGQGTLVTVSS VL: EIVLTQSPGTLSLSPGERATLSCRASQSVSNSYLAWYQQKPGQAPRLLIFGASSRAPGIPDRFSGSGSGTDFTLTISRLEPEDFAVYYCQQYGSSPPWTFGQGTKVEIK
0.26	L1000H1024 (antibody, V domains shown, human kappa) VH: EVQLVQSGGGLVQPGGSLRLSCAGSGFTFSRNAMFWVRQAPGKGLEWVSGIGTGGATSYADSVKGRFTISRDNAKNSLYLQMNSLRAEDTAVYYCARGRYYFPWWGQGTLVTVSS VL: not shown
0.11	L1000H1010 (antibody, V domains shown, human kappa) VH: EVQLVQSGGGLVQPGGSLRLSCAGSGFTFSRNAMFWVRQAPGKGLEWVSGIGTGGATNYADSVKGRFTISRDNAKNSLYLQMNSLRAEDMAVYYCARGRYYFDYWGQGTLVTVSS VL: not shown
0.35	L1000H1021 (antibody, V domains shown, human kappa) VH: EVQLVQSGGGLVHPGGSLRLSCAGSGFTFSRNAMFWVRQAPGKGLEWVSGIGTGGATNYADSVKGRFTISRDNAKNSLYLQMNSLRAEDTAVYYCARGRYYFPWWGQGTLVTVSS VL: not shown
-0.01	L1000H1037 (antibody, V domains shown, human kappa) VH: EVQLVQSGGGLVHPGGSLRLSCAGSGFTFSRNAMFWVRQAPGKGLEWVSGIGTGGATNYADSVKGRFTISRDEAKNSLYLQMNSLRAEDMAVYYCARGRYYFDYWGQGTLVTVSS VL: not shown
0.8	L1007H1000 (antibody, V domains shown, human kappa) VH: EVQLVQSGGGLVHPGGSLRLSCAGSGFTFSRNAMFWVRQAPGKGLEWVSGIGTGGATNYADSVKGRFTISRDNAKNSLYLQMNSLRAEDMAVYYCARGRYYFDYWGQGTLVTVSS VL: not shown
1	L1010H1000 (antibody, V domains shown, human kappa) VH: EVQLVQSGGGLVHPGGSLRLSCAGSGFTFSRNAMFWVRQAPGKGLEWVSGIGTGGATNYADSVKGRFTISRDNAKNSLYLQMNSLRAEDMAVYYCARGRYYFDYWGQGTLVTVSS VL: not shown
0.18	L1000H1012 (antibody, V domains shown, human kappa) VH: EVQLVQSGGGLVHPGGSLRLSCAGSGFTFSRNAMFWVRQAPGKGLEWVSGIGTGGATSYADSVKGRFTISRDNAKNSLYLQMNSLRAEDTAVYYCARGRYYFDYWGQGTLVTVSS VL: not shown
0.21	L1000H1025 (antibody, V domains shown, human kappa) VH: EVQLVQSGGGLVHPGGSLRLSCAASGFTFSRNAMFWVRQAPGKGLEWVSGIGTGGATSYADSVKGRFTISRDNAKNSLYLQMNSLRAEDTAVYYCARGRYYFPWWGQGTLVTVSS VL: not shown
0.8	L1000H1029 (antibody, V domains shown, human kappa) VH: EVQLVESGGGLVQPGGSLRLSCAASGFTFSRNAMFWVRQAPGKGLEWVSGIGTGGATSYADSVKGRFTISRDNAKNSLYLQMNSLRAEDMAVYYCARGRYYFPWWGQGTLVTVSS VL: not shown
